B1: human soluble FLT3L (recombinant huFLT3L) (ligand, UniProt P49771 27-184, looked up)
chain: TQDCSFQHSPISSDFAVKIRELSDYLLQDYPVTVASNLQDEELCGGLWRLVLAQRWMERLKTVAGSKMQGLLERVNTEIHFVTKCAFQPPPSCLRFVQTNISRLLQETSEQLVALKPWITRQNFSRCLELQCQPDSSTLPPPWSPRPLEATAPTAPQP
notes: extracellular domain; also called rhuFLT3L; hFLT3L

Experiment [1] addresses T1, hFLT3 receptor (human, UniProt P36888 27-541, limits assumed).
T1 construct: The construct is not described
T1 sequence (looked up): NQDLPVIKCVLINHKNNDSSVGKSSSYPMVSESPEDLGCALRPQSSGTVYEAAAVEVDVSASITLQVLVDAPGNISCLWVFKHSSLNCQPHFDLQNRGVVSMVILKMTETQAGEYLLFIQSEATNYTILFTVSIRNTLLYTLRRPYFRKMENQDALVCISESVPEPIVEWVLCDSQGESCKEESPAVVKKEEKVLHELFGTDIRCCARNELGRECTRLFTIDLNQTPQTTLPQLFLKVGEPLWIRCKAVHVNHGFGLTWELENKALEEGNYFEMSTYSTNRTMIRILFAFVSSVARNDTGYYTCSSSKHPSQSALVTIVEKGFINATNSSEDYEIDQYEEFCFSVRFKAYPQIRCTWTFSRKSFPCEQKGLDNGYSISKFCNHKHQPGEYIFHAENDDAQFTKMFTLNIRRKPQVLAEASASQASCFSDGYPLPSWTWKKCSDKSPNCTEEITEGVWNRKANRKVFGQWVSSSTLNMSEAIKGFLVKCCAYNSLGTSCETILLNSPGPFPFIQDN
The experiment is described as follows: Biacore.

The target of experiment [2] is T2, FLT3 on RS4;11 cells (human, UniProt P36888 27-993).
T2 sequence (looked up): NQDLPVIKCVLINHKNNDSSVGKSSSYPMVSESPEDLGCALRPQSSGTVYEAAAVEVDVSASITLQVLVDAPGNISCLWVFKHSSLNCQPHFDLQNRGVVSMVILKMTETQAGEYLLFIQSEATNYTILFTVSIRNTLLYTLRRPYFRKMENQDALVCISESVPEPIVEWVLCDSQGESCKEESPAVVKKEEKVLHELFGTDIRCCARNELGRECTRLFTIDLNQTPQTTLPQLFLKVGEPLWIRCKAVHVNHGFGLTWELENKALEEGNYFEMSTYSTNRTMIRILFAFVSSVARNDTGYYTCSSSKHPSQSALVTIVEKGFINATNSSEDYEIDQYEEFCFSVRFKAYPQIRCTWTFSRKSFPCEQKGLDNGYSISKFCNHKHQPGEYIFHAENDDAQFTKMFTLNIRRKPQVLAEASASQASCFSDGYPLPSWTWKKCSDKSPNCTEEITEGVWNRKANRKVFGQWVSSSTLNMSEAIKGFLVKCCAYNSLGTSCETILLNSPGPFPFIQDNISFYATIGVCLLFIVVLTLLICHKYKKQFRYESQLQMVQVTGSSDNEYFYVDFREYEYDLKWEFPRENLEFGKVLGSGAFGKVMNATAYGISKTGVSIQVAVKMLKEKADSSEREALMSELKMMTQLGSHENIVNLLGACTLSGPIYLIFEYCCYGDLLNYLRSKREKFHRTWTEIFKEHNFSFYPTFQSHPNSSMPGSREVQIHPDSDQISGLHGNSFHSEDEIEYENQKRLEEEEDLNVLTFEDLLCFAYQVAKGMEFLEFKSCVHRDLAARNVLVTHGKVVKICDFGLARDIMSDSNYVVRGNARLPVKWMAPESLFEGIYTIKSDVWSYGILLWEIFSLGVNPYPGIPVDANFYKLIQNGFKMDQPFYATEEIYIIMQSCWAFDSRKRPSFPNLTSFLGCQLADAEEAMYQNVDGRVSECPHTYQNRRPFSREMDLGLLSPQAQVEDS
The experiment is described as follows: cell-based or functional assay.

Experiment [3] has as its target T2, FLT3 on RS4;11 cells. The experiment is described as follows: flow cytometry: biotinylated rhuFLT3L on RS4;11 cells, detected with BV421-streptavidin.
The target in experiment [4] is B1. The experiment is described as follows: Biacore.
Experiment [5] deals with B1. The experiment is described as follows: Biacore, Fab, steady-state.
In experiment [6] the target is T3, cynomolgus monkey soluble FLT3L (cynomolgus monkey).
T3 construct: extracellular domain; also called cyno sFLT3L; cyno FLT3L
The experiment is described as follows: Biacore, Fab, steady-state.

In experiment [7] the target is B1. The experiment is described as follows: Biacore, Fab, kinetic (koff/kon).
Experiment [8] addresses T3, cynomolgus monkey soluble FLT3L. The experiment is described as follows: Biacore, Fab, kinetic (koff/kon).
For experiment [9], the target named is B1. The experiment is described as follows: Biacore, Fab.
Experiment [10] deals with T3, cynomolgus monkey soluble FLT3L. The experiment is described as follows: Biacore, Fab.
In experiment [11] the target is B1. The experiment is described as follows: Biacore, Fab. The source holds these as a separate data set.
The target of experiment [12] is T3, cynomolgus monkey soluble FLT3L. The experiment is described as follows: Biacore, Fab. The source holds these as a separate data set.
For experiment [13], the target named is B1. The experiment is described as follows: cell-based or functional assay.
Experiment [14] has as its target T4, cynomolgus monkey FLT3L on CHO cells (cynomolgus monkey).
T4 construct: whole, on cells; also called cell surface cyno FLT3L
The experiment is described as follows: flow cytometry on CHO cells expressing full-length cyno FLT3L, PE anti-hu IgG. The procedure: (§1) Consistent with this, cell surface binding to human, cyno, and mouse FLT3L was evaluated by transfecting Chinese hamster ovary (CHO) cells with the respective full-length protein for each species. Candidate clones were incubated with FLT3L-expressing cell lines for 1 hour at 4° C. before being washed twice to remove unbound antibody. Cells were then incubated with PE-labeled goat anti-hu IgG secondary detection pAb to quantitate bound antibody which was measured by flow cytometric analysis of PE signal. The huFLT3-Fc construct, on a hu IgG backbone, was used as a positive control reagent for FLT3L expression as it cross reacts with cyno and mouse, in addition to human ligand.
(§2) As differences were apparent in the degree of receptor occupancy for each clone, both EC50 and max occupancy were noted (expressed as percent relative to FLT3-Fc) and taken into account in the final evaluation. Results are shown in Table 4 for human, cyno, and mouse FLT3L expressed in CHO cells.

In experiment [15] the target is T5, human FLT3L on the cell surface (human, UniProt P49771 27-235).
T5 construct: whole, on cells; The assay field of each row says which cells carried it; also called cell-surface FLT3L; huFLT3L-expressing CHO cells
T5 sequence (looked up): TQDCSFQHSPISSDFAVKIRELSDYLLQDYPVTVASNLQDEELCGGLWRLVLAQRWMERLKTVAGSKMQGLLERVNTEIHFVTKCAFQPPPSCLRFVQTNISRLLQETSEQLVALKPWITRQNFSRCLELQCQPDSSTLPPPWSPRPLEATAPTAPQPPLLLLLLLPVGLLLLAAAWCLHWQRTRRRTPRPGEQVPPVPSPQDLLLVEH
The experiment is described as follows: flow cytometry on CHO cells expressing full-length human FLT3L, PE anti-hu IgG. The protocol: as §1, §2

The target of experiment [16] is B1. The experiment is described as follows: cell-based or functional assay. This is another data set of the same source.
Experiment [17] has as its target T6, mouse soluble FLT3L (mouse, UniProt P49772 27-189).
T6 sequence (looked up): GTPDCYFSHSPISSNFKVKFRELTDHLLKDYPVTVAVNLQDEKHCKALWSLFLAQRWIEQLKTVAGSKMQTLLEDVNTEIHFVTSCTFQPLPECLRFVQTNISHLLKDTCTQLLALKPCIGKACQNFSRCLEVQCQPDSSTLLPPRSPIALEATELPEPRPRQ
The experiment is described as follows: cell-based or functional assay.

Experiment [18] addresses T3, cynomolgus monkey soluble FLT3L. The experiment is described as follows: cell-based or functional assay.
The target in experiment [19] is T7, mouse FLT3L on CHO cells (mouse, UniProt P49772 27-232).
T7 construct: whole, on cells; also called cell surface mouse FLT3L
T7 sequence (looked up): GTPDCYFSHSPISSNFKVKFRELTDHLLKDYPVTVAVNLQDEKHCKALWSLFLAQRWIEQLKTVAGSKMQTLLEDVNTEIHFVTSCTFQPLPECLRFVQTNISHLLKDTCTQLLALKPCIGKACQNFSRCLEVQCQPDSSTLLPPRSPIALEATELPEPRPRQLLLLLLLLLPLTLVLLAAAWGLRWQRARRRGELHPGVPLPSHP
The experiment is described as follows: flow cytometry on CHO cells expressing full-length mouse FLT3L, PE anti-hu IgG. The procedure:
as §1, §2

In [1], B1 showed a Kd of 22.3 nM, a koff of 0.00812 s⁻¹ and a kon of 360000 M⁻¹ s⁻¹. Besides, in experiment [2], the “fold decrease in Allophycocyanin (APC) MFI, an indicator of FLT3 expression, on RS4;11 cells” value came out at 25 fold. In addition, the “EC50 (read off the curve)” value in experiment [3] is approximately 0.1 nM.

B2: CAT5D9 Fab (Fab, V domains shown)
VH: QVQLVQSGAEVKKPGSSVKVSCKISGGTFSSYALSWVRQAPGQGLEWMGGIIPVFRTASYAQKFQGRVTITVDESASTGYIELSSLKSEDTATYYCASNNYVWGSYRFWGQGTTVTVSS
VL: NFMLTQPHSVSESPGKTVTISCTRTSGNIAGYFVQWYQQRPGSSPTTVIYEDYQRPSGVPDRFSGSIDRSSNSASLTISGLKPDDEADYYCQSYDDTSQGVFGAGTKVTVL
notes: also called 5D9 parent
In the case of B2, the Kd in experiment [4] was found to be 1160 nM; in [5], 1600 nM; in experiment [6], 1610 nM; in experiment [7], 1160 nM; in [8], 1160 nM. Besides, the koff in experiment [4], in [11] and in experiment [12] was 0.0707 s⁻¹ throughout. Also, the figures for the kon in experiment [4], in experiment [11] and in experiment [12] were 60000 M⁻¹ s⁻¹, 61000 M⁻¹ s⁻¹ and 61000 M⁻¹ s⁻¹, respectively. The “fold KD against the remaining lead antibodies” value in experiment [9] and in experiment [10] was more than 50 fold throughout.

B3: Dyax3 antibody (IgG1 TM format) (antibody, V domains shown)
VH: EVQLLESGGGLVQPGGSLRLSCAASGFTFSMYEMRWVRQAPGKGLEWVSVIPSGGKTFYADSVKGRFTISRDNSKNTLYLQMNSLRAEDTAVYYCARYSRWFGQLGFYSHYAMDVWSQGTTVTVSS
VL: DIQMTQSPSSLSASVGDRVAITCRASQSIDTYLNWYQQKPGKAPKLLIYAASKLEDGVPSRFSGSGTGTDFTLTIRSLQPEDFASYFCQQSYSSPGITFGPGTKVEIK
notes: also called DTAX3
B3: the “IC50 (nM) against 0.476 nM FLT3L, ERK phosphorylation in CD133+ stem cells” value in experiment [13] turned out to be 2.4 nM. Moreover, the “IC50 (nM) against 0.476 nM FLT3L, MEK phosphorylation in CD133+ stem cells” value in experiment [13] amounted to 93 nM. Also, the EC50 in experiment [14] came to 1.8 nM; in experiment [15] it was 0.27 nM; in experiment [19] it was 0.39 nM. For the same molecule, the “maximum occupancy (% relative to FLT3-Fc)” value in experiment [14] is 35%; in experiment [15] it was 33%; in experiment [19], 16%. Besides, the “IC50 (nM), inhibition of FLT3 downregulation on RS4;11 cells” value in experiment [16] is 54.8 nM; in experiment [17] it was 1490 nM; in experiment [18] it was 3070 nM.
